Source: US20260209365A1, “ANTI-COMMON GAMMA CHAIN PROTEINS AND COMPOSITIONS OF MATTER” (SINOMAB BIOSCIENCE LIMITED, priority 2023, published 2026)

Tests used:
[1] = target: T1, human γc on cells (KHYG-1, Ramos, HPB-ALL, Jurkat, PBMC) (human) (UniProt P31785); test: cell-based or functional assay
T1 sequence (looked up): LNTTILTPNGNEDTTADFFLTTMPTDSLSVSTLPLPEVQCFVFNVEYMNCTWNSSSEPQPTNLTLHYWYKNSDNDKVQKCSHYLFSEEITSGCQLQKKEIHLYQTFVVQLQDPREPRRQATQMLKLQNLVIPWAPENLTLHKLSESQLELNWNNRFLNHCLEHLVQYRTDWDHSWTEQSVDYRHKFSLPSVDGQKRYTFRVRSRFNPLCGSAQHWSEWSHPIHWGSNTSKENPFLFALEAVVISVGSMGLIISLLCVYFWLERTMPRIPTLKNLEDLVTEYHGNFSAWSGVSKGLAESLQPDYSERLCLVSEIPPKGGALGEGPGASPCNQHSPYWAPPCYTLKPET

[2] = system: IL-21 induced STAT3 phosphorylation; test: Inhibition of IL-21 induced STAT phosphorylation in Ramos B cell line, flow cytometry; format: cell-based, human; details: ScFv 10 μg/ml
Description: (§1) Cells were harvested and stained with FITC conjugated anti-pSTAT6, PE conjugated anti-pSTAT3 or APC con jugated anti-pSTAT5 antibodies for flow cytometry analyses. In some embodiments, the purified ScFv could block the IL-4 induced STAT6 phosphorylation in cell culture (e.g., Ramos). In some embodiments, the purified ScFv could block the IL-7 induced STAT5 phosphorylation in cell culture (e.g., HPB-ALL). In some embodiments, the purified ScFv could block the IL-9 induced STAT3 phosphorylation in cell culture (e.g., Jurkat). In some embodiments, the purified ScFv could block the IL-15 induced STAT5 phosphorylation in cell culture (e.g., KHYG-1). In some embodiments, the purified ScFv could block the IL-21 induced STAT3 phosphorylation in cell culture (e.g., Ramos).
(§2) Flow cytometry was employed to measure the percentage of p-STAT expressing cells after cytokine induction and anti-γc ScFv treatment. KHYG-1 (Creative Bioarray, Shirley, NY 11967, USA) was starved in IL-2 free RPMI1640 (ATCC modification, ThermoFisher Scientific, Waltham, MA, USA) with 10% FBS (ThermoFisher Scientific) for 2 days. Ramos, HPB-ALL and Jurkat cell lines were used directly without starvation. Cells were replenished with fresh RPMI1640 medium and pretreated with anti-γc ScFv (10 μg/mL) for an hour. After treatment with TL-4 (10 ng/ml, Sino Biological), IL-7 (50 ng/ml, Sino Biological), IL-9 (50 ng/ml, Sino Biological), IL-15 (10 ng/ml, Sino Biological) or IL-21 (10 ng/ml, Sino Biological) for 15 min, cells were fixed in 4% paraformaldehyde (PFA, Sigma, St. Louis, Missouri, USA) for 10 min, permeabilized in 0.1% Triton X-100 (Sigma) for 10 min and then stained with FITC conjugated anti-pSTAT6, PE conjugated anti-pSTAT3 or APC con jugated anti-pSTAT5 (all diluted in 1:100, Biolegend, San Diego, California, USA) for 30 min at 37° C. Percentage of p-STAT expressing cells was measured by BD FACSLyric™ Clinical Flow Cytometry System (BD Biosciences, New Jersey, USA). Data were analyzed by Flowjo (version 10, BD).
(§3) Different cell lines were used for testing. KHYG-1 refers to the NK cell line harvested from the peripheral blood of a person with aggressive NK cell leukemia. This cell line could respond to IL-2 and IL-15 stimulation in-vitro [Yamasaki et al., Leuk Res., […]; 28 (10): 1023-31]. Ramos is a human Burkitts Lymphoma cell line (CRL-1596™) and could be used as a model for IL-4 and IL-21 studies [Hui et al., Front Immunol., 2022; 13: 919854]. Jurkat is a human T lymphoblast cell line (Clone E6-1, TIB-152™) and is widely used in the T cell studies of IL-9 function. HPB-ALL is a T cell leukemia model established from the peripheral blood of a child with ALL and thymoma at diagnosis in 1973 and could be used for IL-7 functional studies.

[3] = system: IL-15 induced STAT5 phosphorylation; test: Inhibition of IL-15 induced STAT phosphorylation in KHYG-1 NK cell line, flow cytometry; format: cell-based, human; details: ScFv 10 μg/ml
Description: as §1, §2, §3

[4] = system: IL-7 induced STAT5 phosphorylation; test: Inhibition of IL-7 induced STAT5 phosphorylation in HPB-ALL T cell line, flow cytometry; format: cell-based, human; details: ScFv 10 μg/ml
Description: as §1, §2, §3

Row | Molecule | p-STAT3 inhibition (%), IL-9 induced, Jurkat T cells, flow cytometry [1] [%] | p-STAT3 inhibition (%), IL-21 induced, Ramos B cells, flow cytometry [1] [%] | p-STAT5 inhibition (%), IL-7 induced, HPB-ALL T cells, flow cytometry [1] [%] | p-STAT5 inhibition (%), IL-15 induced, KHYG-1 NK cells, flow cytometry [1] [%] | p-STAT6 inhibition (%), IL-4 induced, Ramos B cells, flow cytometry [1] [%] | p-STAT3 inhibition (%) [2] [%] | p-STAT5 inhibition (%) [3] [%] | p-STAT5 inhibition (%) [4] [%]
1 | SM-05A anti-γc ScFv (scFv, part only; not given: linker and E-tag, not shown: small tags and cut ends) scFv (part 1 of 2), part: EVQLQQSGPELVKPGASVKISCKTSGYTFTEYTMHWVKQSHGKSLEWIGGIDPYNGGATYNQRFKGKATLTVDKSSSTAYMEFRSLTSEDSAVYYCARRRLYYGNALDYWGQGTSVTVSS scFv (part 2 of 2), part: DVLMTQTPLSLPVSLGDQASISCRSSQSLVHSNGNTYLHWYLQRPGQSPKLLIYKVSSRFSGVPDRFSGSGSGTDFTLKISRVEAEDLGVYFCSQTTHVPFTFGSGTKLEIKR | 80.6 | 47.3 | 100 | 48.6 | 86.1 |  |  | 
2 | SM-05B anti-γc ScFv (scFv, part only; not given: linker and E-tag, not shown: small tags and cut ends) scFv (part 1 of 2), part: QVQLQQSGPELVKPGASVKIFCKTSGYTFTEYTMHWVKQSHGESLEWIGGIDPNTGGATYNQKFKGKATLTADKSSSTAYMELRSLTSEDSAVYYCARRRRYYGYALDYWGQGTSVTVSS scFv (part 2 of 2), part: DVLMTQTPLSLPVSLGDQASISCRSSQSIVHSNGNTYLEWYLQKPGQSPKLLIYKVSNRFSGVPDRFSGSGSGTDFTLKISRVEAEDLGVYFCSQSTHVPWTFGGGTKLEIKR | 82.6 | 13.8 | 94.5 | 47.1 | 77 |  |  | 
3 | SM-05C anti-γc ScFv (scFv, part only; not given: linker and E-tag, not shown: small tags and cut ends) scFv (part 1 of 2), part: QVQLQQSGPELVKPGASVKIFCKTSGYTFTEYTMHWVKQSHGESLEWIGGIDPNTGGATYNQKFKGKATLTADKSSSTAYMELRSLTSEDSAVYYCARRRRYYGYAMDYWGQGTSVTVSS scFv (part 2 of 2), part: DVVMTQTPLSLPVSLGDQASISCRSSQSLVHSNGNTYLHWYLQKPGQSPKLLIYKVSNRFSGVPDRFSGSGSGTDFTLKISRVEAEDLGIYYCFQDSHVPFTFGSGTKLEIKR | 97.9 | 29.1 | 100 | 46 | 46 |  |  | 
4 | SM-05E anti-γc ScFv (scFv, part only; not given: linker and E-tag, not shown: small tags and cut ends) scFv (part 1 of 2), part: EVHLQQSGPELVKPGASVKIFCKTSGYTFTEYTMHWVKQSHGESLEWIGGIDPNTGGVTYNQKFKGKATLTADKSSSTAYMELRSLTSEDSAVYYCARRRRYYGYALDYWGQGTSVTVSS scFv (part 2 of 2), part: DVLMTQTPLSLPVSLGDQASISCRSSQSIVHSNGNTYLEWYLQKPGQSPKLLIYKVSNRFSGVPDRFSGSGSGTDFTLKISSVEAEDLGVYFCSQSTHVPFMFGSGTKLEIKR | 74.3 | 60.6 | 98.3 | 47.8 | 85.6 |  |  | 
5 | SM-05F anti-γc ScFv (scFv, part only; not given: linker and E-tag, not shown: small tags and cut ends) scFv (part 1 of 2), part: EVQLQQSGPELVKPGASVKIFCKTSGYTFTEYTMHWVKQSHGESLEWIGGIDPNTGGVTYNQKFKGKATLTADKSSSTAYMELRSLTSEDSAVYYCARRRRYYGYALDYWGQGTSVTVSS scFv (part 2 of 2), part: DVLMTQTPLSLPVSLGDQASISCRSSQSIVHNNGNTYLEWYLQKPGQSPKLLIYKVSNRFFGVPDRFSGSGSGTYFTLKISRVEAEDLGVYYCFQGSHVPWTFGGGTKLEIKR | 92.4 | 79 | 99.4 | 43.7 | 46 |  |  | 
6 | SM-05K: anti-γc antibody; CDR SEQ ID NO: 164, 166, 168, 172, 174, 176 (antibody, V domains shown, left off: another chain or arm of the molecule; small tags and cut ends) VH: EVQLLESGPELVKPGASVKISCKTSGYSFTDYFMNWVKQSHGESLEWIGGIDPNTGGVTYNQKFKGKATLTVDKSASTAYMELRSLTSEDSAVYYCARRRRYYGYAMDYWGQGTSVTVSS VL: DVLMTQTPLSLPVSLGDQASISCRSSQSIVHSNGNTYLEWYLQKPGQSPKLLIYKVSNRFSGVPDRFSGSGSGTDFTLKISRVEAEDLGVYFCSQSTHVPWTFGGGTKLEIK |  |  |  |  |  | 90.77 | 42.97 | 86.02

Second part, led by results:

Row | p-STAT3 inhibition (%), IL-9 induced, Jurkat T cells, flow cytometry [1] [%] | p-STAT3 inhibition (%), IL-21 induced, Ramos B cells, flow cytometry [1] [%] | p-STAT5 inhibition (%), IL-7 induced, HPB-ALL T cells, flow cytometry [1] [%] | p-STAT5 inhibition (%), IL-15 induced, KHYG-1 NK cells, flow cytometry [1] [%] | p-STAT6 inhibition (%), IL-4 induced, Ramos B cells, flow cytometry [1] [%] | Molecule | p-STAT3 inhibition (%) [2] [%] | p-STAT5 inhibition (%) [3] [%] | p-STAT5 inhibition (%) [4] [%]
7 | 93.1 | 70.6 | 100 | 51.7 | 63.4 | SM-05H anti-γc ScFv (scFv, part only; not given: linker and E-tag, not shown: small tags and cut ends) scFv (part 1 of 2), part: QVQLQQSGPELVKPGASMNIFCKTSGYTFTEYTMHWVKQSHGESLEWIGGIDPNTGGATYNQKFKGQATLTADKSSSTAYMELRSLTSEDSAVYYCARRRRYYGYALDYWGQGTSVTVSS scFv (part 2 of 2), part: DVLMTQTPLSLPVSLGDQASISCRSSQNIIHSNGNTYLEWYLQKPGQSPKLLIYKVSNRFSGVPDRFTGSGSGTDFTLKISRVEAEDLGVYFCSQSTHVPFTFGGGTKLEIKR |  |  | 
8 | 100 | 91 |  | 38.9 | 74.1 | SM-05I anti-γc ScFv (scFv, part only; not given: linker and E-tag, not shown: small tags and cut ends) scFv (part 1 of 2), part: QVQLQQSGAELAKPGASVKLSCKASGYTFTEYTMHWVKQSHGESLDWIGGIDPNTGGATYNQRFKGKATMTVDKSSSTAYMEFRSLTSEDSAVYYCARRRRYYGYALDNWGQGTSVTVSS scFv (part 2 of 2), part: DVLMTQTPLSLPVSLGDQASISCRSSQSIVHSNGNTYLEWYLQKPGQSPKLLIYKVSNRFSGVPDRFSGSGSGTDFTLKISRVEAEDLGVYYCFQDSHVPFTFGSGTKLEIKR |  |  | 
9 | 100 | 75.8 | 98.1 | 42.7 | 82.2 | SM-05J anti-γc ScFv (scFv, part only; not given: linker and E-tag, not shown: small tags and cut ends) scFv (part 1 of 2), part: EVQLQQSGPELVKPGASVKISCKTSGYTFTEYTMHWVKQSHGKSLEWIGGIDPYNGGITYNQRFKGKATLTVDKSSSTAYMELRSLTSEDSAVYYCARRRLYYGYALDYWGQGTSVTVSS scFv (part 2 of 2), part: DVVMTQTPLSLPVSLGDQASISCRSSQSIVHSNGNTYLEWYLQKPGQSPKLLIYKVSNRFSGVPDRFSGSGSGTDFTLKISRVEAEDLGVYYCFQGSHVPFTFGSGTKLEIKR |  |  | 
10 |  | 90.8 | 86 | 43 |  | SM-05K anti-γc ScFv (scFv, part only; not given: linker and E-tag, not shown: small tags and cut ends) scFv (part 1 of 2), part: EVQLLESGPELVKPGASVKISCKTSGYSFTDYFMNWVKQSHGESLEWIGGIDPNTGGVTYNQKFKGKATLTVDKSASTAYMELRSLTSEDSAVYYCARRRRYYGYAMDYWGQGTSVTVSS scFv (part 2 of 2), part: DVLMTQTPLSLPVSLGDQASISCRSSQSIVHSNGNTYLEWYLQKPGQSPKLLIYKVSNRFSGVPDRFSGSGSGTDFTLKISRVEAEDLGVYFCSQSTHVPWTFGGGTKLEIKR |  |  | 
11 |  |  | 0 |  |  | SM-05G anti-γc ScFv (scFv, part only; not given: linker and E-tag, not shown: small tags and cut ends) scFv (part 1 of 2), part: EVQLQQSGPELVKPGASVKIFCKTSGYTFTEYTMHWVKQSHGESLEWIGGIDPNTGGVTYNQKFKGKATLTADSSSSTAYMELRNLTSEDSAVYYCARRRRYYGYALDYWGQGTSVTVSS scFv (part 2 of 2), part: DVVMTQTPLSLPVNLGDQASISCRSSQSLVHSNGNTYLDWYLQKPGQSPKLLIYKVSNRFSGVPDRFSGSGSGTYFTLNFSRVEAEDLGVYYCFQGSHVPFTFGSGTKLEIKR |  |  | 
